Assay results reported in patent publication US20040214235A1 (KIRIN BEER, published 2004).

Key:
[1] = molecular target: T1, TRAIL-R2-hFc, fusion protein of the extracellular region of human TRAIL-R2 and the Fc region of human IgG1 (human, UniProt O14763 56-210); assay: SPR (BIACORE 2000), TRAIL-R2-hFc immobilised on CM5, bivalent model
T1 construct: extracellular domain; Bought (ALEXIS) or made with TRAIL-R2 amino acids 1 to 183 as the extracellular region; not shown: Fc region of human IgG1
Description: TRAIL-R1-hFc or TRAIL-R2-hFc was diluted at a final concentration of 10 μg/ml with 10 mM Acetic Acid (pH 4.0), and then immobilized on a sensor chip CM5 by the amine coupling method. The immobilization conditions are as follows. NHS activation and ethanolamine blocking were performed according to the methods described in the instructions. Coupling of TRAIL-R1-hFc and that of TRAIL-R2-hFc were performed by manual injection as described in the instructions.
Each antibody of the dilution series was added in order at a flow rate of 20 μl/minute by the KINJECT method (binding for 2 minutes and dissociation for 6 minutes), thereby obtaining a sensorgram. […] Each antibody of the dilution series was added in order at a flow rate of 20 μl/minute by the KINJECT method (binding for 2 minutes and dissociation for 2 minutes), thereby obtaining sensorgrams. For each antibody, kinetics analysis was performed using each sensorgram and BIAevaluation software ver3.2 (Biacore). As a fitting model, global fitting was performed using a Bivalent model, so that the binding rate constant and the dissociation rate constant were found. In addition, a dissociation constant (Kd value) was calculated from the two constants. Also, the sensorgrams were used for fitting after the subtraction of control cells and buffer correction. In the tables, “kass” indicates the binding rate constant, “kdiss” indicates the dissociation rate constant, and “KD” indicates the dissociation constant.

[2] = molecular target: T2, human TRAIL-R2 on the surface of cells (Colo205, U251, Jurkat, normal human hepatocytes) (human, UniProt O14763 56-440); assay: cell-based or functional assay
[3] = molecular target: T2, human TRAIL-R2 on the surface of cells …; assay: cell-based or functional assay; remark: listed apart in the source
[4] = molecular target: T3, TRAIL-R1-hFc, fusion protein of the extracellular region of human TRAIL-R1 and the Fc region of human IgG1 (human, UniProt O00220 24-239); assay: ELISA, TRAIL-R1-hFc coated plate, purified antibody
T3 construct: extracellular domain; Bought (ALEXIS); not shown: Fc region of human IgG1
T3 sequence (looked up): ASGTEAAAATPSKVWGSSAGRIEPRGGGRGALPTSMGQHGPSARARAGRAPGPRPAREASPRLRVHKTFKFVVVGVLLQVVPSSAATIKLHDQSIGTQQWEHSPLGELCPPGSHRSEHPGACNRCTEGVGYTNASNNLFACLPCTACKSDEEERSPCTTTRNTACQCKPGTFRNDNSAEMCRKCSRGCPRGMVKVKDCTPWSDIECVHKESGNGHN

[5] = molecular target: T1, TRAIL-R2-hFc, fusion protein of the …; assay: ELISA on a plate coated with TRAIL-R2-hFc, detection with HRP-labeled goat anti-human Ig kappa, absorbance at 450 nm (method of Example 18)
Description: 50 μl of the thus prepared solution was added to each well of a 96-well microplate for ELISA (Maxisorp, Nunc) and incubated for 1 hour at room temperature or at 4° C. overnight, thereby coating TRAIL-R1-hFc or TRAIL-R2-hFc to the microplate. […] Thus, a microplate having each well coated with TRAIL-R1-hFc or TRAIL-R2-hFc was prepared.
The culture supernatant of each hybridoma (50 μl) was added to each well, reaction was performed at room temperature for 1 hour, and then each well was washed three times in 0.1% Tween20-containing PBS (PBS-T). Subsequently, horseradish peroxidase-labeled goat anti-human Igκ antibodies (50 μl/well, Biosource International) were diluted 2000 times in PBS-T containing 10% Block Ace (Dainippon Pharmaceutical Co., Ltd.). 50 μl of the thus prepared solution was added to each well, and incubation was then performed at room temperature for 30 minutes; The microplate was washed three times with PBS-T, and then 50 μl of a TMB chromogenic substrate solution (DAKO) was added to each well, followed by incubation at room temperature for 20 minutes. 0.5M sulfuric acid was added (50 μl/well) to each well to stop reaction.
For the measurement of the binding activity, 96-well microplate for ELISA (Maxisorp, Nunc) to which TRAIL-R2-hFc was coated was used.

[6] = molecular target: T3, TRAIL-R1-hFc, fusion protein of the …; assay: ELISA, TRAIL-R1-hFc coated plate, hybridoma culture supernatant

B1: human anti-TRAIL-R2 monoclonal antibody E-11-13 (antibody, IgG1, V domains shown)
VH: QLQLQESGPGLVKPSETLSLTCTVSGGSIISKSSYWGWIRQPPGKGLEWIGSIYYSGSTFYNPSLKSRVTISVDTSKNQFSLKLSSVTAADTAVYYCARLTVAEFDYWGQGTLVTVSS
VL: EIVLTQSPATLSLSPGERATLSCRASQSVSSFLAWYQQKPGQAPRLLIYDASNRATGIPARFSGSGSGTDFTLTISSLEPEDFAVYYCQQRSNWPLTFGPGTKVDIK
notes: Hybridoma FERM BP-7698 / BP-7770; also called E-11-3
[1]
  Kd: 0.0729 nM
  koff: 3.84e-05 s⁻¹
  kon: 527000 M⁻¹ s⁻¹
[2]
  LD50, Colo205 cells, 48 h, with goat anti-human IgG cross-linker: 0.11 µg/mL
  LD50, normal human hepatocytes, 24 h, with goat anti-human IgG cross-linker: 2.8 µg/mL
[3]
  LD50, Jurkat cells, 48 h: 0.1 µg/mL
  LD50, U251 cells, 48 h: 0.3 µg/mL

B2: human anti-TRAIL-R2 monoclonal antibody 0304 (from the hybridoma) (antibody, IgG4, V domains shown)
VH: QVQLVQSGAEMKKPGASVKVSCKTSGYTFTNYKINWVRQAPGQGLEWMGWMNPDTDSTGYPQKFQGRVTMTRNTSISTAYMELSSLRSEDTAVYYCARSYGSGSYYRDYYYGMDVWGQGTTVTVSS
VL: EIVLTQSPATLSLSPGERATLSCRASQSVSSYLAWYQQKPGQAPRLLIYDASNRATGIPARFSGSGSGTDFTLTISSLEPEDFAVYYCQQRSNWPLTFGGGTKVEIK
notes: IgG4, human kappa light chain
[2]
  LD50, Colo205 cells, 48 h, with goat anti-human IgG cross-linker: 0.02 µg/mL
  LD50, normal human hepatocytes, 24 h, with goat anti-human IgG cross-linker: 0.002 µg/mL
[4]
  binding result: no binding

B3: human anti-TRAIL-R2 monoclonal antibody KMTR1 (antibody, IgG1, V domains shown)
VH: EVQLLESGGGLVQPGRSLRLSCAASGFTFSSYAMSWVRQAPGKGLEWVSAISGSGGSRYYADSVKGRFTISRDNSKNTLYLQMNSLRAEDTAVYYCAKESSGWFGAFDYWGQGTLVTVSS
VL: EIVLTQSPDFQSVTPKEKVTITCRASQSIGSSLHWYQQKPDQSPKLLIKYASQSFSGVPSRFSGSGSGTDFTLTINSLEAEDAAAYYCHQSSSLPITFGQGTRLEIK
notes: IgG1, human kappa light chain
[2]
  LD50, Colo205 cells, 48 h, with goat anti-human IgG cross-linker: 0.04 µg/mL
  LD50, normal human hepatocytes, 24 h, with goat anti-human IgG cross-linker: > 10 µg/mL
[4]
  binding result: binds

B4: human anti-TRAIL-R2 monoclonal antibody L-30-10 (antibody, IgG1, V domains shown)
VH: QLQLQESGPGLVKPSETLSLTCTVSGGSISSRSNYWGWIRQPPGKGLEWIGNVYYRGSTYYNSSLKSRVTISVDTSKNQFSLKLSSVTVADTAVYYCARLSVAEFDYWGQGILVTVSS
VL: EIVLTQSPATLSLSPGERATLSCRASQSVSSFLAWYQQKPGQAPRLLIYDASNRATGSPARFSGSGSGTDFTLTISSLEPEDFAVYYCQQRSDWPLTFGPGTKVDIK
notes: Hybridoma FERM BP-7700 / BP-7769
[1]
  Kd: 2.35 nM
  koff: 0.00144 s⁻¹
  kon: 613000 M⁻¹ s⁻¹
[2]
  LD50, Colo205 cells, 48 h, with goat anti-human IgG cross-linker: 0.1 µg/mL
  LD50, normal human hepatocytes, 24 h, with goat anti-human IgG cross-linker: 24 µg/mL
[3]
  LD50, Jurkat cells, 48 h: 0.13 µg/mL
  LD50, U251 cells, 48 h: 0.17 µg/mL

B5: recombinant 0304 antibody of which subclass is IgG1 (antibody, V domains shown)
VH: QVQLVQSGAEMKKPGASVKVSCKTSGYTFTNYKINWVRQAPGQGLEWMGWMNPDTDSTGYPQKFQGRVTMTRNTSISTAYMELSSLRSEDTAVYYCARSYGSGSYYRDYYYGMDVWGQGTTVTVSS
VL: EIVLTQSPATLSLSPGERATLSCRASQSVSSYLAWYQQKPGQAPRLLIYDASNRATGIPARFSGSGSGTDFTLTISSLEPEDFAVYYCQQRSNWPLTFGGGTKVEIK
[5]
  EC50 (read off the curve): ~0.03 µg/mL

B6: recombinant 0304 antibody of which subclass is IgG4 (antibody, V domains shown)
VH: QVQLVQSGAEMKKPGASVKVSCKTSGYTFTNYKINWVRQAPGQGLEWMGWMNPDTDSTGYPQKFQGRVTMTRNTSISTAYMELSSLRSEDTAVYYCARSYGSGSYYRDYYYGMDVWGQGTTVTVSS
VL: EIVLTQSPATLSLSPGERATLSCRASQSVSSYLAWYQQKPGQAPRLLIYDASNRATGIPARFSGSGSGTDFTLTISSLEPEDFAVYYCQQRSNWPLTFGGGTKVEIK
[5]
  EC50 (read off the curve): ~0.03 µg/mL

B7: human anti-TRAIL-R2 monoclonal antibody H-48-2 (antibody, IgG1, V domains shown)
VH: QLQLQESGPGLVKPSETLSLTCTVSGGSISSSSYYWGWVRQPPGKGLEWIGSIHYSGSTFYNPSLKSRVTISVDTSKNQFSLKLSSVTAADTTVYYCARQGSTVVRGVYYYGMDVWGQGTTVTVSS
VL: not shown
notes: IgG1, human kappa light chain; Hybridoma FERM BP-7599; also called H-48-2-IgG1
[6]
  binding result: no binding
